{"source": "patent US20240059799A1", "about": "(Pfizer, published 2024)", "key": {"human IL-23": {"target": "T1, human IL-23 (human, UniProt P29460 23-328; Q9NPF7 20-189)", "T1 sequence 1": "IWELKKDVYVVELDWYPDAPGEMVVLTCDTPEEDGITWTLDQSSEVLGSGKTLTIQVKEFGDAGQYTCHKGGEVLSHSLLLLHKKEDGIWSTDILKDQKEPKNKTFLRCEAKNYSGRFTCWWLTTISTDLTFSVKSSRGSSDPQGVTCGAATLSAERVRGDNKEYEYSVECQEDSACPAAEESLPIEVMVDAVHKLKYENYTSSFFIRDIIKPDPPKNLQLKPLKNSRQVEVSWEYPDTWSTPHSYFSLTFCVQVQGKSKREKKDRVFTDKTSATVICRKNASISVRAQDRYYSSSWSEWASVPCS", "T1 sequence 2": "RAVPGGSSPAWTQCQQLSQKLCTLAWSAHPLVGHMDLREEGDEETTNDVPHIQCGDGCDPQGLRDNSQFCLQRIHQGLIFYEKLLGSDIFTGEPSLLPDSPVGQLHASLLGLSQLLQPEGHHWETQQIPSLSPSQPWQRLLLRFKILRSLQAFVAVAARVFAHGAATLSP", "experiment": "cell-based or functional assay"}, "recombinant human TL1A": {"target": "T2, recombinant human TL1A (human, UniProt O95150 71-251)", "T2 chain": "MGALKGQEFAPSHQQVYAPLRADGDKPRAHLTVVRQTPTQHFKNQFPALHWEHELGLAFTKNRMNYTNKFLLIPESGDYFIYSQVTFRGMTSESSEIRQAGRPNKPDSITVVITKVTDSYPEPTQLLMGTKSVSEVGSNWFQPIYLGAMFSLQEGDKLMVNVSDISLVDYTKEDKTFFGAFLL", "experiment": "cell-based or functional assay"}, "human IL-12": {"target": "T3, human IL-12 (human, UniProt P29460 23-328; P29459 23-219)", "T3 sequence 1": "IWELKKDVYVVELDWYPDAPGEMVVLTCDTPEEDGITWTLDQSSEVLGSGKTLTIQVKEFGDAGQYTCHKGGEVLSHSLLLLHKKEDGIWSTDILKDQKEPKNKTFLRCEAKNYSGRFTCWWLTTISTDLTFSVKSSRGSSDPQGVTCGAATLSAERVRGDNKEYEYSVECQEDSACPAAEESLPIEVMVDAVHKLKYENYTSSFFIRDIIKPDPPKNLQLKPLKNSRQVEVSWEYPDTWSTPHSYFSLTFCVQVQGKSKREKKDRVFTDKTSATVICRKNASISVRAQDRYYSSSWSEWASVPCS", "T3 sequence 2": "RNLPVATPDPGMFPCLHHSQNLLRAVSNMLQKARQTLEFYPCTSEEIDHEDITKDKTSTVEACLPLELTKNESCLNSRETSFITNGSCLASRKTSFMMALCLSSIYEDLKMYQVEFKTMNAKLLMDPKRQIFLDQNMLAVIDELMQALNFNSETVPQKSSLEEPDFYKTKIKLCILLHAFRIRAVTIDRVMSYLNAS", "experiment": "cell-based or functional assay"}, "mouse IL-23": {"target": "T4, mouse IL-23 (mouse, UniProt P43432 23-335; Q9EQ14 22-196)", "T4 sequence 1": "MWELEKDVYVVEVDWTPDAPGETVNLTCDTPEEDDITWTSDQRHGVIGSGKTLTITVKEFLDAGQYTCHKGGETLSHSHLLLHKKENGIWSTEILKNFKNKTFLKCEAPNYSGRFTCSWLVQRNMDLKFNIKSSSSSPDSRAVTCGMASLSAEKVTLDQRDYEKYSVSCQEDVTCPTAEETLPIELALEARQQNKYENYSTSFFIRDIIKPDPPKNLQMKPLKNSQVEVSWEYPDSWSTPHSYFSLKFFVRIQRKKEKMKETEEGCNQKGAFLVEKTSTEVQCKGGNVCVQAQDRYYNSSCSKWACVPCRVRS", "T4 sequence 2": "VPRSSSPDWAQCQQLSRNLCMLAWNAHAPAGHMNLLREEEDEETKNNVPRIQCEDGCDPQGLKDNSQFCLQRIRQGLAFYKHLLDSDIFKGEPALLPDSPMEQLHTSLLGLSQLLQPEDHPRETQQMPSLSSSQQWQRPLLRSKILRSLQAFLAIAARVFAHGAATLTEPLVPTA", "experiment": "SPR, Biacore 8K+, 37 C; antibody captured by anti-human Fc, cytokine injected", "procedure": "(§1) In order to determine binding to TL1A, kinetic assays were conducted at 37° C. using a collection rate of 10 Hz on a Biacore™ T200 instrument (GE Healthcare). […] For the analysis of the p40 binding arm, kinetic assays were conducted at 37° C. using a collection rate of 10 Hz on a Biacore™ 8 K+ instrument (GE Healthcare)."}, "rat IL-23": {"target": "T5, rat IL-23 (rat, UniProt P43432 23-335; Q91Z84 22-196, limits assumed)", "T5 chain 1": "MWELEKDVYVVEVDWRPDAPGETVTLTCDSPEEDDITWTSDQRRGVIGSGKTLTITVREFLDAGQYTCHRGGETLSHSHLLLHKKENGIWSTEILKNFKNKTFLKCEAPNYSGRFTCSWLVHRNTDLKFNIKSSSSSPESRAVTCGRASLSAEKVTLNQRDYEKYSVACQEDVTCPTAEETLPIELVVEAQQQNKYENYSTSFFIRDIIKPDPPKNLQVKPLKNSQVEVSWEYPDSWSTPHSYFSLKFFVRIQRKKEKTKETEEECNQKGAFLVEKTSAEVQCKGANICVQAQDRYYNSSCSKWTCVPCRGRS", "T5 chain 2": "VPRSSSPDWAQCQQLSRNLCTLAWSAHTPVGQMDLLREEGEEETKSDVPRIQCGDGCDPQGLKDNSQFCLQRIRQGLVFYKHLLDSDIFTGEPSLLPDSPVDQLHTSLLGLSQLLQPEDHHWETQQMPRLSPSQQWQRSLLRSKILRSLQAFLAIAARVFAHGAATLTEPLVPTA", "experiment": "SPR, Biacore 8K+, 37 C; antibody captured by anti-human Fc, cytokine injected", "procedure": "as §1"}}, "data": [{"binder": "p40TL1A-0033 bispecific antibody (bispecific antibody, human IgG1, kappa, Single cell KiH, modified Fd format; IgG1 effector-function-minimized Fc with LS mutations) heavy: EVQLVQSGAEVKKPGESLKISCKGSGYSFTTYWLGWVRQMPGKGLDWIGIMSPVDSDIRYSPSFQGQVTMSVDKSITTAYLQWNSLKASDTAMYYCARRRPGQGYFDFWGQGTLVTVSSASTKGPSVFPLAPSSKSTSGGTAALGCLVKDYFPEPVTVSWNSGALTSGVHTFPAVLQSSGLYSLSSVVTVPSSSLGTQTYICNVNHKPSNTKVDKKVEPKSCDKTHTCPPCPAPEAAGAPSVFLFPPKPKDTLMISRTPEVTCVVVDVSHEDPEVKFNWYVDGVEVHNAKTKPREEQYNSTYRVVSVLTVLHQDWLNGKEYKCKVSNKALPAPIEKTISKAKGQPREPQVCTLPPSREEMTKNQVSLWCLVKGFYPSDIAVEWESNGQPENNYKTTPPVLDSDGSFFLYSKLTVDKSRWQQGNVFSCSVLHEALHSHYTQKSLSLSPGK light: not shown chain 1: not shown chain 2: QVQLVQSGAEVKKPGASVKVSCKASGYDYTYYGISWVRQAPGQGLEWMGWISTYNTGTHYAPSLQGRVTMTTDTSTSTAYMELRSLRSDDTAVYYCARESYYGSGAFRGGMDVWGQGTTVTVSSASTKGPSVFPLAPSSKSTSGGTAALGCLVKDYFPEPVTVSWNSGALTSGVHTFPAVLQSSGLYSLSSVVTVPSSSLGTQTYICNVNHKPSNTKVDKKVEPKSC", "values": [{"measurement": "KIT-225 STAT3 assay IL-23, Bioactivity relative to p40-0003", "setting": "human IL-23", "result": 1.4, "unit": "fold"}, {"measurement": "KIT-225 STAT3 assay IL-23 IC50", "setting": "human IL-23", "result": 2.3, "unit": "nM"}, {"measurement": "NF-κB assay IC50 (TF-1 reporter cells)", "setting": "recombinant human TL1A", "result": 0.131, "unit": "nM"}, {"measurement": "NF-κB assay, Bioactivity relative to TL1A-0372", "setting": "recombinant human TL1A", "result": 1.3, "unit": "fold"}, {"measurement": "KIT-225 STAT4 assay IL-12, Bioactivity relative to p40-0003", "setting": "human IL-12", "result": 1.4, "unit": "fold"}, {"measurement": "KIT-225 STAT4 assay IL-12 IC50", "setting": "human IL-12", "result": 4.8, "unit": "nM"}, {"measurement": "binding result", "setting": "mouse IL-23", "result": "no binding (tested: 200 nM)"}, {"measurement": "binding result", "setting": "rat IL-23", "result": "no binding (tested: 200 nM)"}]}]}
